B1: AtHPPD (Arabidopsis thaliana; F381A) (protein)
chain: MGHQNAAVSENQNHDDGAASSPGFKLVGFSKFVRKNPKSDKFKVKRFHHIEFWCGDATNVARRFSWGLGMRFSAKSDLSTGNMVHASYLLTSGDLRFLFTAPYSPSLSAGEIKPTTTASIPSFDHGSCRSFFSSHGLGVRAVAIEVEDAESAFSISVANGAIPSSPPIVLNEAVTIAEVKLYGDVVLRYVSYKAEDTEKSEFLPGFERVEDASSFPLDYGIRRLDHAVGNVPELGPALTYVAGFTGFHQFAEFTADDVGTAESGLNSAVLASNDEMVLLPINEPVHGTKRKSQIQTYLEHNEGAGLQHLALMSEDIFRTLREMRKRSSIGGFDFMPSPPPTYYQNLKKRVGDVLSDDQIKECEELGILVDRDDQGTLLQIATKPLGDRPTIFIEIIQRVGCMMKDEEGKAYQSGGCGGFGKGNFSELFKSIEEYEKTLEAKQLVG
notes: full-length, N-terminal His tag (pET15b), E. coli BL21 (DE3); Ni-NTA, ion exchange, size exclusion; homodimers in crystal
B2: AtHPPD (Arabidopsis thaliana; Q293A) (protein)
chain: MGHQNAAVSENQNHDDGAASSPGFKLVGFSKFVRKNPKSDKFKVKRFHHIEFWCGDATNVARRFSWGLGMRFSAKSDLSTGNMVHASYLLTSGDLRFLFTAPYSPSLSAGEIKPTTTASIPSFDHGSCRSFFSSHGLGVRAVAIEVEDAESAFSISVANGAIPSSPPIVLNEAVTIAEVKLYGDVVLRYVSYKAEDTEKSEFLPGFERVEDASSFPLDYGIRRLDHAVGNVPELGPALTYVAGFTGFHQFAEFTADDVGTAESGLNSAVLASNDEMVLLPINEPVHGTKRKSAIQTYLEHNEGAGLQHLALMSEDIFRTLREMRKRSSIGGFDFMPSPPPTYYQNLKKRVGDVLSDDQIKECEELGILVDRDDQGTLLQIFTKPLGDRPTIFIEIIQRVGCMMKDEEGKAYQSGGCGGFGKGNFSELFKSIEEYEKTLEAKQLVG
notes: as for B1
B3: AtHPPD (Arabidopsis thaliana; Q307A) (protein)
chain: MGHQNAAVSENQNHDDGAASSPGFKLVGFSKFVRKNPKSDKFKVKRFHHIEFWCGDATNVARRFSWGLGMRFSAKSDLSTGNMVHASYLLTSGDLRFLFTAPYSPSLSAGEIKPTTTASIPSFDHGSCRSFFSSHGLGVRAVAIEVEDAESAFSISVANGAIPSSPPIVLNEAVTIAEVKLYGDVVLRYVSYKAEDTEKSEFLPGFERVEDASSFPLDYGIRRLDHAVGNVPELGPALTYVAGFTGFHQFAEFTADDVGTAESGLNSAVLASNDEMVLLPINEPVHGTKRKSQIQTYLEHNEGAGLAHLALMSEDIFRTLREMRKRSSIGGFDFMPSPPPTYYQNLKKRVGDVLSDDQIKECEELGILVDRDDQGTLLQIFTKPLGDRPTIFIEIIQRVGCMMKDEEGKAYQSGGCGGFGKGNFSELFKSIEEYEKTLEAKQLVG
notes: as for B1
B4: AtHPPD (Arabidopsis thaliana; N423A) (protein)
chain: MGHQNAAVSENQNHDDGAASSPGFKLVGFSKFVRKNPKSDKFKVKRFHHIEFWCGDATNVARRFSWGLGMRFSAKSDLSTGNMVHASYLLTSGDLRFLFTAPYSPSLSAGEIKPTTTASIPSFDHGSCRSFFSSHGLGVRAVAIEVEDAESAFSISVANGAIPSSPPIVLNEAVTIAEVKLYGDVVLRYVSYKAEDTEKSEFLPGFERVEDASSFPLDYGIRRLDHAVGNVPELGPALTYVAGFTGFHQFAEFTADDVGTAESGLNSAVLASNDEMVLLPINEPVHGTKRKSQIQTYLEHNEGAGLQHLALMSEDIFRTLREMRKRSSIGGFDFMPSPPPTYYQNLKKRVGDVLSDDQIKECEELGILVDRDDQGTLLQIFTKPLGDRPTIFIEIIQRVGCMMKDEEGKAYQSGGCGGFGKGAFSELFKSIEEYEKTLEAKQLVG
notes: as for B1
B5: AtHPPD (Arabidopsis thaliana; N282A) (protein)
chain: MGHQNAAVSENQNHDDGAASSPGFKLVGFSKFVRKNPKSDKFKVKRFHHIEFWCGDATNVARRFSWGLGMRFSAKSDLSTGNMVHASYLLTSGDLRFLFTAPYSPSLSAGEIKPTTTASIPSFDHGSCRSFFSSHGLGVRAVAIEVEDAESAFSISVANGAIPSSPPIVLNEAVTIAEVKLYGDVVLRYVSYKAEDTEKSEFLPGFERVEDASSFPLDYGIRRLDHAVGNVPELGPALTYVAGFTGFHQFAEFTADDVGTAESGLNSAVLASNDEMVLLPIAEPVHGTKRKSQIQTYLEHNEGAGLQHLALMSEDIFRTLREMRKRSSIGGFDFMPSPPPTYYQNLKKRVGDVLSDDQIKECEELGILVDRDDQGTLLQIFTKPLGDRPTIFIEIIQRVGCMMKDEEGKAYQSGGCGGFGKGNFSELFKSIEEYEKTLEAKQLVG
notes: as for B1
B6: AtHPPD (Arabidopsis thaliana; S267A) (protein)
chain: MGHQNAAVSENQNHDDGAASSPGFKLVGFSKFVRKNPKSDKFKVKRFHHIEFWCGDATNVARRFSWGLGMRFSAKSDLSTGNMVHASYLLTSGDLRFLFTAPYSPSLSAGEIKPTTTASIPSFDHGSCRSFFSSHGLGVRAVAIEVEDAESAFSISVANGAIPSSPPIVLNEAVTIAEVKLYGDVVLRYVSYKAEDTEKSEFLPGFERVEDASSFPLDYGIRRLDHAVGNVPELGPALTYVAGFTGFHQFAEFTADDVGTAESGLNAAVLASNDEMVLLPINEPVHGTKRKSQIQTYLEHNEGAGLQHLALMSEDIFRTLREMRKRSSIGGFDFMPSPPPTYYQNLKKRVGDVLSDDQIKECEELGILVDRDDQGTLLQIFTKPLGDRPTIFIEIIQRVGCMMKDEEGKAYQSGGCGGFGKGNFSELFKSIEEYEKTLEAKQLVG
notes: as for B1
B7: AtHPPD (Arabidopsis thaliana) (protein)
chain: MGHQNAAVSENQNHDDGAASSPGFKLVGFSKFVRKNPKSDKFKVKRFHHIEFWCGDATNVARRFSWGLGMRFSAKSDLSTGNMVHASYLLTSGDLRFLFTAPYSPSLSAGEIKPTTTASIPSFDHGSCRSFFSSHGLGVRAVAIEVEDAESAFSISVANGAIPSSPPIVLNEAVTIAEVKLYGDVVLRYVSYKAEDTEKSEFLPGFERVEDASSFPLDYGIRRLDHAVGNVPELGPALTYVAGFTGFHQFAEFTADDVGTAESGLNSAVLASNDEMVLLPINEPVHGTKRKSQIQTYLEHNEGAGLQHLALMSEDIFRTLREMRKRSSIGGFDFMPSPPPTYYQNLKKRVGDVLSDDQIKECEELGILVDRDDQGTLLQIFTKPLGDRPTIFIEIIQRVGCMMKDEEGKAYQSGGCGGFGKGNFSELFKSIEEYEKTLEAKQLVG
notes: as for B1

Data on seven proteins can be found in article PMC6750108, “Crystal Structure of 4-Hydroxyphenylpyruvate Dioxygenase in Complex with Substrate Reveals a New Starting Point for Herbicide Discovery” (Research, 2019).

Substrate in one data set: O=C(O)C(=O)Cc1ccc(O)cc1
Nature of the data set: purified protein. The format is biochemical, Arabidopsis thaliana. Conditions: apparent, air-saturated 20 mM HEPES pH 7.0, 25 °C, 0.1 mM FeSO4, 2 mM ascorbate.
For orientation: Km means the substrate concentration at which the rate is half of its maximum. As a reminder, the kcat is the maximal rate divided by the concentration of active sites. A word on the kcat/Km: it is the second-order rate constant that governs catalysis at low substrate concentration. For B1, the Km is 9.10 ± 0.94 µM, the turnover number (kcat) turned out to be 0.924 ± 0.032 s⁻¹ and the kcat/Km came out at 102000 M⁻¹ s⁻¹.

With B2, the Michaelis-Menten constant (Km) was 90.41 ± 11.33 µM, the catalytic constant (kcat) came out at 0.014 ± 0.001 s⁻¹ and the catalytic efficiency (kcat/Km) is 150 M⁻¹ s⁻¹.

With B3, the Km was 30.31 ± 1.67 µM, the turnover number (kcat) was found to be 0.176 ± 0.004 s⁻¹ and the kcat/Km amounted to 5800 M⁻¹ s⁻¹.

As to B4, the Michaelis-Menten constant (Km) came to 15.66 ± 4.29 µM, the kcat was 0.545 ± 0.061 s⁻¹ and the kcat/Km stood at 34800 M⁻¹ s⁻¹.

B5: the Km was determined as 10.83 ± 2.33 µM, the turnover number (kcat) was 0.039 ± 0.003 s⁻¹ and the catalytic efficiency (kcat/Km) amounted to 3600 M⁻¹ s⁻¹.

B6: the Michaelis-Menten constant (Km) is 5.33 ± 1.59 µM, the kcat worked out at 0.249 ± 0.025 s⁻¹ and the specificity constant (kcat/Km) was found to be 46700 M⁻¹ s⁻¹.

Staying with this data set, now noted: apparent, air-saturated 20 mM HEPES pH 7.0, 25 °C, 0.1 mM FeSO4, 2 mM ascorbate, crystal with Co2+, 2.80 Å.
For B7, the Km stood at 1.87 ± 0.37 µM, the kcat came to 1.08 ± 0.053 s⁻¹ and the specificity constant (kcat/Km) is 577000 M⁻¹ s⁻¹.
